The nature of this series: label from the status in PepcDB records.

For “MLVSIILVNYNGADILPDCLNSIDKFISKDNCEILLVDNASQDNSYELVAQDFPDVKIVRLPKNYGFGAGNNAGAKIAKGKFLLLLNTDTILTTNILPHLIDLMRENPDVGIIGTKLVFPDETFQISFAYTIGIKGEYKSRKLHEYAEDKSKLNSLEQEFNTIKEVDIVVGAALFIRADLFHSVGGFDEKFFIYFEDADLCRRVQNQGYKILYTPQVSLIHIRGHSMKKNLEHHHHHH”, the protein production result is “failed”.

Consider “MLWFLTCVAALVGGYFIYGAFVEKVFGINEKRQTPAHTKTDGVDYVPMSTPKVYLVQLLNIAGVGPIFGPIMGALYGPAAMLWIVVGCIFAGAVHDYFSGMLSIRNGGASVPSITGRYLGNGAKHFMNIFAIVLLLLVGVVFVSAPAGMITNLINQQTDFTVSMTTMVVIIFAYYILATIVPVDKIIGRFYPLFGALLIFMSVGLMTAIAFSSEHQVLGGFEISDMVKNLNPNDMPLWPALFITIACGAISGFHATQSPLMARCMENEKNGRFVFYGAMIGEGIIALIWCTVALSFFGSLEALSEAVKNGGPGNVVYGASFGLLGVFGGVIAFLGVVILPITSGDTAFRSSRLILAEYFNMEQKTLRNRLLMAVPLFVIGAVLTQVDFGIIWRYFGFANQATAVMMLWTATAYLMRHNKLHWICTVPALFMTTVCISFILNSSTLGFGLPMQISTIAGVLASLGALAYVAKVSKGKGETDLADEEKPQGVTKTA”, for which the protein production result is recorded as “failed”.

“MLWGMETAVRPEPAPSPLREHLAAGLKGLHPAYFALVMATGIVSIVSDVLGLREAAALLFWLNVPAYAVLWLLVAARALRYPRALAADLASHQRGPGFFTSVAATCVLGLQLVLLRGDAAAALALWWVGMLLWCACTYAVFVALAVRDPKPTLGEGINGGWLVAVVATQSVVVLGTRALVPRYPGSEAVLFFLASLWLCGGMLYVWMISLIFYRYMFFRFSPSDLMPPYWINMGAVAISVVAGTSLAALAPGSAFLGALLPFVKGLTLMFWATATWWIPMLVLLGIWRHGGPSRIRIAYDPLYWGLVFPLGMYALCTYRLGELFAMPVLPWVARTFATVALAAWLLTAFGLAGRFLQLVVLAVRSLHAERGAAGPQPGSLERMARRS”: the protein production result is on record as “failed”.

In the case of “MLWHVFYGRGRMLLSNHAQGRNFRPIFVMSDPISWTAEATERLKEIPFFVRPAARKKIENFAREAGITEITETVYEQAKQKFN”, the protein production result is “failed”.

For “MLYFDHWTKVPADIWRWPNFSPEEIACRSTGKVGIDPQAMDKLQALRDRLGAPLMLNSAYRSPEHNRAEGGAPASEHLKARAFDVSMINHDPAEFEAAARAVGFTGFGFYRRNNFIHVDIGPAREWGNRWFDRVPHGAPLRPAPRFSPPPKLRPETLAEDRGARGTALGAGGGVALIGALGNVVGDLNPTAQAIAFGGAIVLAASLAYLIRDKIREWA”, the protein production entry is given as “failed”.

As for “MLYIIGLGLYDEKDITVRGLEAVKSCDLVFLEHYTAILQCDVAKLEEFYGKKVIIGDRDLVETEADQILEPAKTKNVALLVVGDVYGATTHSDIFVRCQKMGIEVKVIHNASIMNAIGCSGLQLYRFGQTVSVCFWSEHWRPSSYYPKIKINRDNNMHTLVLLDIKVKERSEENIIKGRDIFEPPRYMTINQCIEQLLEVEKEQHLGVYDEDTMVVGMARVACADQKIVYGKMKDLLHYDFGAPMHCLLIPAPQVDDPELDHLEYFKYKPE”, the protein production result is “not failed”.

Take “MLYKSVTESFNEFIIDRSDATCIRCKVCVRQCAYEVHAYEAKADALTEDNTLCIGCRRCSALCPTGAITIRSNEEVFKRNESWSNAHIRNLYAQADTGGILLAAMGNPAKYPIYWDHMLLDASQVTNPSIDPLREPMELRTYLGKKPHSIEVVRDEQTGKPKLATKLTPQIKMEYPFIFSAMSYGALNLNAHKAMAMAAKELGTLYNTGEGGLHRDLYQYGSNVMVQVASGRFGVSEAYLNAGVAIEIKVGQGAKPGIGGHLPGEKVNDQISETRMIPAGADAISPAPHHDIYSIEDLRQLIFALKEATNYTKPVSVKIAAVHHVAAIASGVARAGADIITIDGFRGGTGAAPQVIRDNVGIPMELALAAVDARLRDEGIRNQVSIVVGGGVRSSGDAIKAIALGADAINMGTSTLLALGCTLCQRCYTGKCPWGITTNNPYLAKRLNPELGAERLVNLVHAWGHEMKEILGGMGLNALESLRGNRYKLRALGLTEKDMNILGVMPAGE”: the protein production entry is recorded as “failed”.

On to “MMADEEEEVKPILQKLQELVDQLYSFRDCYFETHSVEDAGRKQQDVRKEMEKTLQQMEEVVGSVQGKAQVLMLTGKALNVTPDYSPKAEELLSKAVKLEPELVEAWNQLGEVYWKKGDVAAAHTCFSGALTHCRNKVSLQNLSMVLRQLRTDTEDEHSHHVMDSVRQAKLAVQMDVHDGRSWYILGNSYLSLYFSTGQNPKISQQALSAYAQAEKVDRKASSNPDLHLNRATLHKYEESYGEALEGFSRAAALDPAWPEPRQREQQLLEFLDRLTSLLESKGKVKTKKLQSMLGSLRPAHLGPCSDGHYQSASGQKVTLELKPLSTLQPGVNSGAVILGKVVFSLTTEEKVPFTFGLVDSDGPCYAVMVYNIVQSWGVLIGDSVAIPEPNLRLHRIQHKGKDYSFSSVRVETPLLLVVNGKPQGSSSQAVATVASRPQCE”, for which the protein production entry was “failed”.

As to “MMAERPQPVAAPEEDEIDLGQLLGQIWHGKLWIGSATLAAGMLGLAWLANTAPTYRADTLLQLEEKASPLALPTALSELAGGEARSATEVEILRSRLVLGEAVAAFHLDWEAKPLRAPLVGQAVASGVLPLPEVEGLIRYDRGDSRIRLDLLEVPPEWVEEPILLTAMGEGQFALLLPDGREETGEVGRPLAVPDRGFGLRIGALEGVRGRQFVIRQLDETGAIGALRDRLTVAERGKQSSILEVGLTGRDPAEVQRTLGGIAEAYLRQNMTRSAAEAESSLEFIEGQLPEAQKAVRAAEDRLNAYRQAQQAIDLGFEGQSLLTQISAIETELRQLADQEEEIANRYTSNHPTYQRLLAMRGRLEERLAALRKEVSNLPETQREVFNFTRDLEVAQEVYLQLLNRAQELRVVKASTIGNVRIVDGARTAPEPVAPRRGRTLALALLLGALSGTGLVLGRAWLRRSVRGPEELDRLGLPVFATVLFAPAAVGNRKGRGLLPILALSDPNSATVEGIRSLRTSLHFGMLDAGSRSIALTSSAPAAGKSFTSVNLAVVAAQAGQSVCLIDADLRRGHLRRYFAVAKGTPGLAEYLAGEAELDELLRPGPVEGLAFLSTGQLPPNPSELLMRPRLAELVAELDRRFDLSIFDAPPVLAVTDPVVIGRAVGATIAVVRHDVTGLGEVEALIRQLQGAGVKPAGAVLNAYRPQRGSGRYGYGYGYRYRYDTGYRPQSGD”, the protein production entry is reported as “failed”.

Consider “MMAKIDVELKKLHQILVDRDYFYQVPDYQRPYVWDKDHLGALIDDLVGSYTNNREDEYFCGSIVIVENQKDKRWDVVDGQQRLTSFIILACTILRLYKHSLGQESKDFIEDSIYDRYDKEKERLKFLTAQNYNSIFENTVLNHLEFEDNIKKSELNKKFEENTYLRNAYYFKELLNESVENGSISDIDDFVKWFYEHIVLTRIICFEQDSAMQIFQVLNDRGQPLSPIDILKSSLMQEIKQDSEKRKDFITTWDKLVEACKSVEGVDIDLEDFFNMYLEYADPSTSKKRADKGLKKVFKDSKKDACGFIYEISEFMKAYTALLKKQDRYVYLLRYLPSRYWASILTTALYVKYPDFDALKKLLVSYYYQTWIAGGTITRIKQTSINIIKNVKSNKSVETIKELILNSIDSYNTFDQYLYNLWDSSSVYHSKWVRPVLALANYFMADEEKPHFIAMDAETQVEHILPQTPKRGSQWNADFDKEKREEWVNNIANLTLLKRKKNAHALNGDFDEKRKIYGGKDTSKVISCYDITKELYSNYRKWNEKSLQERYKSLYNTITPVLHIEGQEDDFEDDFDLE”, for which the protein production result was “failed”.

Take “MMALQEEKGKPVHCERHHESSSVDTEPGLEESKEVIKWKRLPGQACRIPNKHLFSLNAGERGCFCLDFSHNGRILAAACASRDGYPIILYEIPSGRFMRELCGHLNIIYDLSWSKDDHYILTSSSDGTARIWKNEINNTNTFRVLPHPSFVYTAKFHPAVRELVVTGCYDSMIRIWKVEMREDSAILVRQFDVHKSFINSLCFDTEGHHMYSGDCTGVIVVWNTYVKINDLEHSVHHWTINKEIKETEFKGIPISYLEIHPNGKRLLIHTKDSTLRIMDLRILVARKFVGAANYREKIHSTLTPCGTFLFAGSEDGIVYVWNPETGEQVAMYSDLPFKSPIRDISYHPFENMVAFCAFGQNEPILLYIYDFHVAQQEAEMFKRYNGTFPLPGIHQSQDALCTCPKLPHQGSFQIDEFVHTESSSTKMQLVKQRLETVTEVIRSCAAKVNKNLSFTSPPAVSSQQSKLKQSNMLTAQEILHQFGFTQTGIISIERKPCNHQVDTAPTVVALYDYTANRSDELTIHRGDIIRVFFKDNEDWWYGSIGKGQEGYFPANHVASETLYQELPPEIKERSPPLSPEEKTKIEKSPAPQKVK”: the protein production entry is “failed”.

With “MMASYLSTPSVSYSMKSYDPVKVLYTVIISLVSLYTLYITSAFFYVLILSALFAYIIHPVYFFCIRFVKSKQICALIPLGTIFLITLASGVMIVKALMNEISRILEIPNTINGFANMDLRRIVGLFEPLIQTHPGKLTESIGAYLNSLVTDYVPQIQNNIFQISTGLSILIIELIVIVVLTYYLLVESETIATELPNLFPDRKVGVVFLGELNYIYQNLFIVYFLTCLITGIIGGVLYWALGVPYSLIWGILTFIMALLPVVGAGTVYGLLALYYVLIDDFFTAGALIFLGIVFLSIIPDFIMRPRFARNRAAIHPAITLVAFAAPVFVLGPIGIIIGPLTYGFLLAAFRTRKILGTSSAQTESSAAGSPEDLVGSQREKSDESPVGRSVERPVKASGERSRSGN”, the protein production entry is “failed”.

As for “MMCGGRGTRLDAAAEKPLFEVGGRAMVDHVRAALEAAGRIDTTHAAVSPHAPDTAAHLAATPLSLIETPGDGYVADLTAALDAVGTPVLTVAADLPLLAPAVVDTVVAAADGATTSACVPRALKHELGVSTDADADAWVPTGVNVVGGGDTEATHRSFDARLAVNVNHRSDAAVAARLLAATDRRNHPRLEHHHHHH”, the protein production result is listed as “failed”.

On to “MMDLHTHTVYSDGIGLIRDNVAWAEKRGLKIVGISDHIHFFTPSRFSAYINEINVIKEESEIVVLAGIEANILENGPDITDEFRKKLDYAIASVHEWFGRNGTHEYINYVKKAIMDDNVDIIGHFGNSFPWIGYPTREEIDEILDLAEAYGKAFEISARYKVPDLEFIRECVKRGIKLSLATDAHRPEDVGKVSWSLKMLEKAGGTKEDLIFSEYL”, for which the protein production result was “failed”.

As to “MMDSIAGPIQVLSRQFPNAQQGKGAALNHAFQIVLTDAEKGHYSWDQVLVGVVDADGFFSENIVNELTAVFTDTTVCAAQTRIKMKDVTNFMFIAQDVEFFTINNFIQKARRATKTIGLGGNGQFFRLSMITEHLGYQPWGNALLDDYELTIKLMLKELSIAYIDEAFMAQEALRDVKRFIRQRSRWVQGNLDCLAYLPRVIKSKSLTLRQKCGIYYFLAQPFINLVAGMLVFVLTGLQLQHLYRLGFSLSLVISFVLAVSISLVFGIFFTINYYRELKNFQLKVPAKLGLIILPFTISYMYLILFVSVVMAYYRFIKGNSTWIKTERN”, the protein production entry is recorded as “failed”.

“MMEDDGQPRTLYVGNLSRDVTEVLILQLFSQIGPCKSCKMITEHTSNDPYCFVEFYEHRDAAAALAAMNGRKILGKEVKVNWATTPSSQK”: the protein production result was “not failed”.
